The term EC50 denotes the concentration needed to bring the measured effect to its halfway point. A low value points to an effect from little substance.

These results are taken from US20250277026A1 (NOVAROCK BIOTHERAPEUTICS, published 2025).

For experiment [1], the target named is T1, human Claudin-6 (human, UniProt P56747 1-220).
T1 sequence: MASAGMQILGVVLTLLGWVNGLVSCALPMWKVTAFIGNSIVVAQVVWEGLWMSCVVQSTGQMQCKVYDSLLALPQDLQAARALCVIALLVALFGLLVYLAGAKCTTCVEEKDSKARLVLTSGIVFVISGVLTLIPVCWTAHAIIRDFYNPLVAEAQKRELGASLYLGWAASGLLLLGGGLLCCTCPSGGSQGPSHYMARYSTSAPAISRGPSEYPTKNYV
The experiment is described as follows: cell-based or functional assay.

In experiment [2] the target is T1, human Claudin-6. The experiment is described as follows: cell-based or functional assay. The source holds these as a separate data set.
Experiment [3] deals with T1, human Claudin-6. The experiment is described as follows: FACS, NEC8 cells (endogenous CLDN6). Background: In flow cytometry, cells or beads pass a laser one at a time.
Description: (§1) Cells were fixed with 2% PFA (Alfa Aesar, catalog number: J61899) for 15 minutes at 4° C. and then washed. […] Flow cytometric analyses were performed on a flow cytometry instrument (Intellicyte, IQue plus, Sartorius).
Experiment [4] has as its target T1, human Claudin-6. As to the kind of experiment: FACS, Claudin-6-HEK293 cells, 5 µg/ml.
Experiment [5] concerns the target T1, human Claudin-6. The experiment is described as follows: FACS dose response, Claudin-6-CHO-K1 cells.
Description: (§2) The anti-CLDN6 antibodies were also evaluated for their binding affinity to Claudin-6 overexpressing cell lines by FACS.
For experiment [6], the target named is T1, human Claudin-6. As to the kind of experiment: FACS dose response, Claudin-6-HEK293 cells.
Description: as §2
Experiment [7] deals with T1, human Claudin-6. The experiment is described as follows: FACS dose response, NEC8 cells (endogenous CLDN6).
Description: as §1, §2
The target in experiment [8] is T2, human Claudin-3 (human, UniProt O15551 1-220).
T2 construct: On transfected CHO-K1 cells, or endogenous on MCF7 cells; also called CLDN3
T2 sequence: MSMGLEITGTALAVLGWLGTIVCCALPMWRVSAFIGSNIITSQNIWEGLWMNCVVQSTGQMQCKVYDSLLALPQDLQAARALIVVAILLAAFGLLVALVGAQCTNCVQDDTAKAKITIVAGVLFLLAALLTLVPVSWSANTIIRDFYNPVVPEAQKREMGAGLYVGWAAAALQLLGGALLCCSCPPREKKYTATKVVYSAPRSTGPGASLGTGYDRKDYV
As to the kind of experiment: FACS, Claudin-3-CHO-K1 cells, serial dilution, MFI.
Description: (§3) Briefly, Claudin-6-CHO-K1 cells verse parental CHO-K1 cells were incubated with anti-CLDN6 antibodies for 2 hours at 4° C. Cells were fixed with 2% PFA (Alfa Aesar, cat #: J61899) for 15 minutes at 4° C. and then washed. […] Flow cytometric analyses were performed on a flow cytometry instrument (Intellicyte, IQue plus, Sartorius).

In experiment [9] the target is T1, human Claudin-6. As to the kind of experiment: FACS dose response, Claudin-6-HEK293 cells. This is another data set of the same source.
Experiment [10] addresses T1, human Claudin-6. The experiment is described as follows: FACS dose response, NEC8 cells (endogenous CLDN6). The source holds these as a separate data set.
Experiment [11] concerns the target T2, human Claudin-3. The experiment is described as follows: FACS, Claudin-3-CHO-K1 cells, serial dilution, MFI. This is another data set of the same source.
Description: as §3
Experiment [12] deals with T3, human Claudin-4 (human, UniProt O14493 1-209).
T3 construct: On transfected CHO-K1 cells, or endogenous on MCF7 cells; also called CLDN4
T3 sequence: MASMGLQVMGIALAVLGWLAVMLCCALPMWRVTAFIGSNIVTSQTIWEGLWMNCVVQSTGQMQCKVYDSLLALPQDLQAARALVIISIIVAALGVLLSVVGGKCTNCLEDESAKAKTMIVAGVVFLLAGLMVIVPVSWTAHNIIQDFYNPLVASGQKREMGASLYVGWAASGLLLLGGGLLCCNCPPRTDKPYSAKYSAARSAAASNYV
The experiment is described as follows: FACS, Claudin-4-CHO-K1 cells, serial dilution, MFI.
Description: as §3

Experiment [13] deals with T2, human Claudin-3. As to the kind of experiment: FACS, Claudin-3-CHO-K1 cells, serial dilution, MFI. This is another data set of the same source.
Description: as §3
In experiment [14] the target is T3, human Claudin-4. The experiment is described as follows: FACS, Claudin-4-CHO-K1 cells, serial dilution, MFI. This is another data set of the same source.
Description: as §3
The target in experiment [15] is T1, human Claudin-6. As to the kind of experiment: cell-based or functional assay. The source holds these as a separate data set.
Experiment [16] deals with T1, human Claudin-6. As to the kind of experiment: cell-based or functional assay. The source holds these as a separate data set.
The target of experiment [17] is T1, human Claudin-6. The experiment is described as follows: FACS, NEC8 cells (endogenous CLDN6). This is another data set of the same source.
Description: as §1
Experiment [18] deals with T1, human Claudin-6. The experiment is described as follows: FACS, OV90 cells (endogenous CLDN6).
Description: as §1
Experiment [19] has as its target T1, human Claudin-6. As to the kind of experiment: FACS, Claudin-6-CHO-K1 cells, 5 µg/ml.
Description: as §3
In experiment [20] the target is T4, human Claudin-9 (human, UniProt O95484 1-217).
T4 construct: On transfected HEK293 cells; also called CLDN9
T4 sequence: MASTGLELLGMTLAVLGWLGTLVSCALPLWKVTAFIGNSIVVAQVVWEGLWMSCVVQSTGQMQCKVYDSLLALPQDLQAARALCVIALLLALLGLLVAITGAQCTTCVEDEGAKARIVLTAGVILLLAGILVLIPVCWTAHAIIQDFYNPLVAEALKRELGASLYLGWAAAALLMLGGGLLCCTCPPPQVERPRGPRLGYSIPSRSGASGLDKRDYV
As to the kind of experiment: FACS, Claudin-9-HEK293 cells, 5 µg/ml.
Description: (§4) The binding specificity of the disclosed anti-Claudin-6 antibodies were further assessed for binding to Claudin-9 by FACS. Briefly, Claudin-9-HEK293 cells (GenScript, Item #U3288DL180_4) were incubated with recombinant Claudin-6 antibodies for 2 hours at 4° C. Cells were fixed with 2% PFA (Alfa Aesar, cat #: J61899) for 15 minutes at 4° C. and then washed. […] Flow cytometric analyses were performed on a flow cytometry instrument (Intellicyte, IQue plus, Sartorius).

Experiment [21] addresses T1, human Claudin-6. The experiment is described as follows: FACS dose response, Claudin-6-CHO cells.
Description: as §3
For experiment [22], the target named is T1, human Claudin-6. As to the kind of experiment: FACS dose response, Claudin-6-HEK293 cells. The source holds these as a separate data set.
Experiment [23] deals with T4, human Claudin-9. The experiment is described as follows: FACS dose response, Claudin-9-HEK293 cells.
Description: as §4
For experiment [24], the target named is T3, human Claudin-4. As to the kind of experiment: FACS on Claudin-4-CHO-K1 cells, MFI.
Description: as §3
In experiment [25] the target is T2, human Claudin-3. The experiment is described as follows: FACS on Claudin-3-CHO-K1 cells, MFI relative to the isotype control.
Description: as §3
Experiment [26] addresses T3, human Claudin-4. As to the kind of experiment: FACS on Claudin-4-CHO-K1 cells, MFI relative to the isotype control.
Description: as §3
The target in experiment [27] is T2, human Claudin-3. As to the kind of experiment: FACS on MCF7 cells, which endogenously express Claudin-3 and Claudin-4, MFI.
Experiment [28] addresses T3, human Claudin-4. The experiment is described as follows: FACS on MCF7 cells, which endogenously express Claudin-3 and Claudin-4; MFI relative to the isotype control.
The target in experiment [29] is T2, human Claudin-3. Described as above.

B1: NR.N6.Ab3 (antibody, V domains shown)
VH: QVQLVESGGGVVQPGRSLRLSCAASGFTFSGYGMHWVRQAPGKGLEWVAAIWYDGSNKYYADSVKGRFTISSDNSKNTLYLQMKSLRAEDTAVYYCAREWYSSGWSMYDVFDIWGQGTMVTVSS
VL: QTVVTQEPSFSVSPGGTVTLTCGLSSGSVSTSYYPSWYQQTPGQAPRTLIYSTNTRSSGVPDRFSGSILGNKAALTITGAQADDESDYYCVLYMGSGIWVFGGGTKLTVL
As to B1, the “ADCC reporter assay on NEC8 cells, EC50” value in [1] was 6.43 nM. The “endocytosis killing (anti-hFc Fab-MMAF, CellTiter-Glo, 72 h) on NEC8 cells, EC50” value (“endocytosis killing” below) in [2] turned out to be 0.51 nM. For the same molecule, the “fold MFI over isotype control” value in experiment [3] amounted to 20 fold; in [4], 31 fold. Further, the 50% effective concentration (EC50) in experiment [5] came out at 4.69 nM; in [6], 5.17 nM; in experiment [7], 3.27 nM. For the same molecule, the binding result in experiment [8] is “no binding (tested: log 1.5 (about 33 nM))”.

B2: NR.N6.Ab1 variant N73D (antibody, V domains shown)
VH: QVQLVQSGAEVKKPGASVKVSCKASGNTFTSYDINWVRQATGQGLEWMGWMNPNSGNTGYAQKFQGRVTMTRDTSISTAYMELSSLRSEDTAVYYCVYYNYVWGSFRFDDWGQGTLVTVSS
VL: DIQLTQSPSFLSASVGDRVTITCRASQGISSYLAWYQQKPGKAPKLLIYAASTLQSGVPSRFSGSGSGTEFTLAVSSLQPEDFATYYCQQLNSYPYTFGQGTKLEIK
notes: the LALA changes of the constant region are explained nowhere; also called NR.N6.Ab1N73D; NR.N6.Ab1 N73D
B2: the EC50 in [9] is 0.42 nM; in [10] it was 0.74 nM.

B3: NR.N6.Ab4 (antibody, V domains shown)
VH: QVQLVESGGGVVQPGRSLRLSCAASGFIFSSYGMHWVRQAPGKGLEWVAVIWYDGSNKFYADSVKGRFTISRDNSRKTLYLQMNSLRAEDTAVYYCARDGRYFDWGGSYYYYYGMDVWGQGTTVTVSS
VL: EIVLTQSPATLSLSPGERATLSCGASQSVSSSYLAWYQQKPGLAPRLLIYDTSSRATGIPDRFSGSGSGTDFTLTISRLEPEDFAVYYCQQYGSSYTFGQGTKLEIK
As to B3, in experiment [1], the “ADCC reporter assay on NEC8 cells, EC50” value is 9.83 nM. Further, in experiment [2], the “endocytosis killing” value amounted to 0.41 nM. In addition, the “fold MFI over isotype control” value in experiment [3] stood at 19 fold; in experiment [4], 23 fold. Further, the EC50 in experiment [5] stood at 4.79 nM; in [6], 15.7 nM; in experiment [7], 8.34 nM. The binding result in [11] and in experiment [12] was “no binding (tested: log 1.5 (about 33 nM))” in each case.

B4: NR.N6.Ab5 (antibody, V domains shown)
VH: QVQLVESGGGAVQPGRSLRLSCAASGFIFSSYGMHWVRQAPGKGLEWVAIIWFDGRNKNYADSVKGRFTISRDNSKKTLYLEMSSLRAEDTAVYYCARDGRYFDWGGSYYYYYGMDVWGQGTTVTVSS
VL: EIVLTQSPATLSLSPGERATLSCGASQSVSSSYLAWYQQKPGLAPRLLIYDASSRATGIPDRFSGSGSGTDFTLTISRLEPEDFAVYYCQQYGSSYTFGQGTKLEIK
notes: LCDR 41, 45, 43); also called NR.4.N6.Ab5
On to B4, for which the “ADCC reporter assay on NEC8 cells, EC50” value in experiment [1] stood at 3.78 nM. The “endocytosis killing” value in experiment [2] came to 0.26 nM. The “fold MFI over isotype control” value in experiment [3] worked out at 21 fold; in experiment [4], 24 fold. In addition, the EC50 in experiment [5] came to 3.99 nM; in [6], 4.13 nM; in [7], 5.92 nM. In addition, the binding result in [13] and in experiment [14] was “no binding (tested: log 1.5 (about 33 nM))” each time.

B5: NR.N6.Ab2 (antibody, V domains shown)
VH: QVQLVESGGGVVQPGRSLRLSCTASGFTFSHYGMHWVRQAPGKGLEWVSFLWFDGSKDNYADSVKGRFTISRDNSKNMLYLRMDSLRAEDTAVYYCARNGGLTIFDYWGQGTLVTVSS
VL: AIQLTQSPSSLSASVGDRVTITCRASQGINSWLAWYQQKPEKAPKSLIYAASSLQSGVPSRFSGSGSGTDFTLTISSLQPEDFATYYCQQYNFYPYTFGQGTKLEII
notes: hybridoma-purified antibody in the Claudin-3-CHO-K1, Claudin-4-CHO-K1 and MCF7 assays
Regarding B5, the “endocytosis-mediated cytotoxicity (anti-hFc Fab-MMAF, CellTiter-Glo) on NEC8 cells, EC50 mean (St. Dev. 0.07)” value in experiment [15] turned out to be 0.1 nM. Further, the “endocytosis-mediated cytotoxicity on OV90 cells, EC50” value in experiment [16] stood at 2.32 nM. The “fold MFI over isotype control” value in experiment [17] was 25 fold; in experiment [18] it was 17 fold; in experiment [19] it was 24 fold; in [20], 53 fold; in experiment [25], 0.8 x; in experiment [26], 0.9 x. The “fold MFI over isotype control” value in experiment [28] and in [29] was 1.1 x each time. The EC50 in experiment [21] came to 6.88 nM; in experiment [22], 1 nM; in [23], 1.49 nM. Besides, the binding result in experiment [24] and in experiment [27] was “no binding” each time.
